This is an account of results in paper doi:10.1101/2025.03.28.645892, “Plant-specific adaptations of the CDC48 unfoldase” (bioRxiv, 2025).

For assay [1], the target named is T1, Arabidopsis thaliana NPL4 (Arabidopsis thaliana, UniProt O82264 1-413, Alexa-488 dye label in the MST experiments only).
T1 construct: Nuclear protein localisation protein 4 (AtNPL4), Arabidopsis thaliana, locus AT2g47970; cDNA cloned into pGEX6P-1; also called AtNPL4; wild-type AtNPL4; not shown: GST, N-terminal, cleaved
T1 sequence: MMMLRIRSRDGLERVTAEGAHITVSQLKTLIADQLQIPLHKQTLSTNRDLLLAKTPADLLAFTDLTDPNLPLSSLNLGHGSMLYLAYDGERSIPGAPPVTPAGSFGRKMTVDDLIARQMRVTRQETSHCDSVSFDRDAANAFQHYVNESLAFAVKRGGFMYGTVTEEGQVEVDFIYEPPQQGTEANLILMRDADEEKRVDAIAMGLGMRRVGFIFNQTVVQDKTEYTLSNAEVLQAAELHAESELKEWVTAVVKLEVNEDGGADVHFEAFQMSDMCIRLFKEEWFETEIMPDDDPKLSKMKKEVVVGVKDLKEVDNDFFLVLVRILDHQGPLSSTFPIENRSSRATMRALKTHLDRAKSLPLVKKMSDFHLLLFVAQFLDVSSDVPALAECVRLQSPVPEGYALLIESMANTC
Description: MST; Alexa-488-labelled AtNPL4 (50 nM dye solution mixed 1:1), AtUFD1A or AtUFD1B titrated in 16 dilutions; pH 7.5 (50 mM Tris-HCl, 100 mM NaCl, 1 mM TCEP), Tween-20. Particulars: both partners purified.

For assay [2], the target named is T2, Arabidopsis thaliana CDC48A (Arabidopsis thaliana, UniProt P54609 1-809).
T2 construct: Cell division cycle protein 48 A (AtCDC48A), Arabidopsis thaliana, locus AT3g09840; recombinant full-length protein; Homo-hexamer; ADP-saturated or nucleotide-free in some experiments (told by the assay); also called AtCDC48A; AtCDC48; not shown: GST, N-terminal, cleaved
Kind of assay: ITC; AtCDC48A in the cell (30 µM; 10 µM for AtNPL4B UBXL), partner 200 µM in the syringe; 2 mM AMPPNP; 50 mM Bis-Tris pH 6.5, 100 mM NaCl, 1 mM TCEP, 2 mM MgCl2; 25°C. Particulars: both partners purified. On the technique in general: ITC needs no label: the signal is the heat of the interaction.

T2 sequence (P54609 whole entry): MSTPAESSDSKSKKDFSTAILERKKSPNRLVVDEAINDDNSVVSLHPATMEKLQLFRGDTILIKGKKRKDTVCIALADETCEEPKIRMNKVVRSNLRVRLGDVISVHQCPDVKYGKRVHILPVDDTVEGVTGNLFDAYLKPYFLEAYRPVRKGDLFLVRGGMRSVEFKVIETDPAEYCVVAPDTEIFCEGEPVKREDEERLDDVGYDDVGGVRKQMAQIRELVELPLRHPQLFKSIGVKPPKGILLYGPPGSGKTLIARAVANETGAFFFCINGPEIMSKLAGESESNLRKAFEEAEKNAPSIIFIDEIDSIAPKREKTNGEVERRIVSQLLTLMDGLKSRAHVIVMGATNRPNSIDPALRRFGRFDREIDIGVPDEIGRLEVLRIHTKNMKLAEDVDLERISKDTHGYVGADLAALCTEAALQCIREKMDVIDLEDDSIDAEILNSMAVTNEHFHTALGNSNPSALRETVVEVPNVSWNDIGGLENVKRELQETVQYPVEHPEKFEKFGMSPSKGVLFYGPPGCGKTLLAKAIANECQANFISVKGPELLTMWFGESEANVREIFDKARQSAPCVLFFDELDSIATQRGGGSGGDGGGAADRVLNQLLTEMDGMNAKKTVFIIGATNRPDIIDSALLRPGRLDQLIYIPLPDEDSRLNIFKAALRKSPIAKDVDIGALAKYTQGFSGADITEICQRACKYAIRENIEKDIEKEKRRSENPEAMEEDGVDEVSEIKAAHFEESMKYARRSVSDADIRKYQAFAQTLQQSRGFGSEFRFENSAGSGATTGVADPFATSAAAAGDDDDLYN

B1: Arabidopsis thaliana UFD1B (natural protein, UniProt Q9SJV0 1-340, looked up)
chain: MVLRFCCHLLTYSVSLLPPITMFFDGYHYHGTTFEQSYRCYPASFIDKPQLESGDKIIMPPSALDRLASLHIDYPMLFELRNAGIERVTHCGVLEFIAEEGMIYMPYWMMQNLLLQEGDIVRVRNVTLPKGTYVKLQPHTTDFLDISNPKAILETALRNYSCLTSGDSIMVPYNNKKYFIDIVETKPANAISIIETDCEVDFAPPLDYKEPERPTAPSAAKGPAKAEEVVDEPEPKFNPFTGSGRRLDGRPLAYEPAPASSSKGKQPVVANGNGQSSVASSSEKATRAQGKLVFGANGNRAPKEAAPKVGAAKETKKEEQEKKDEPKFQAFSGKKYSLRG
notes: Ubiquitin fusion degradation protein 1 paralogue B (AtUFD1B), Arabidopsis thaliana, locus AT2g21270; cDNA cloned into pGEX6P-1; also called AtUFD1B; AtUFD1; not shown: GST, N-terminal, cleaved
As to B1, the Kd (usually the free concentration of one partner at which half of the binding sites on the other are occupied at equilibrium, for simple one-to-one binding) in assay [1] was more than 200 µM.

B2: AtNPL4B UBXL domain (domain or fragment, Arabidopsis thaliana, UniProt Q9LYC2 1-89, looked up)
chain: MTMLRVRSRDGLERVSVDGPHITVSQLKTLIQDQLQIPIHNQTLSTNRNLLLAKSPSDFLAFTDMADPNLRISSLNLAHGSMVYLAYEG
notes: UBX-like (UBXL) domain of AtNPL4B, Arabidopsis thaliana, locus AT3g63000, residues 1-89; also called the isolated UBXL domain; not shown: GST, N-terminal, cleaved
With B2, the “stoichiometry N” value in assay [2] is 6 AtNPL4B_(UBXL) per hexamer.

B3: AtNPL4B F105A (natural protein, Arabidopsis thaliana, UniProt Q9LYC2 1-413, looked up)
chain: MTMLRVRSRDGLERVSVDGPHITVSQLKTLIQDQLQIPIHNQTLSTNRNLLLAKSPSDFLAFTDMADPNLRISSLNLAHGSMVYLAYEGERTIRGGPAVTPAGSAGRKMTVEDLIARQMRVGRQEKAHCDSVSFDRDCANAFQHFVNESLAFAVKRGGFMYGNVSEDGQVEVNFIYEPPQQGMEDNLILMRDSEEEKRVDAIALGLGMRRVGFIFNQTVTQDKKEYTLSNVEVLLAAQLHAESELKEWVTAVVKLEINEDGGADVHFEPFQMSDMCVRLFKEGWFETEIGPEDDPKLSKLKKEVVVGVKDVKEVDNDFFLVLVKILDHQGPLSCTFPIENRNTQTTMRALKTHMERARSLPFVKRISDFHLLLFVAQFLDVSSDVPALAECVRLQSHVPEGYELLIDSMANTS
notes: AtNPL4B, second NPL4 variant of Arabidopsis thaliana, locus AT3g63000 (84% identical to AtNPL4); ordered from Twist Biosciences in pGEX6P-1; The wild-type AtNPL4B was not measured; also called the F105 mutant; not shown: GST, N-terminal, cleaved
For the molecule B3, in assay [2], the binding result is “binds”.
